Experiments:
[1] = system: adipose tissue A-SAA production; assay: Adipose organ culture: direct effect on adipose A-SAA production in vitro; conditions: rosiglitazone 1 μM; dexamethasone 25 nM and insulin 7 nM; about 48 hours, SAA production between 24 to 48 hours; n=3
[2] = system: mouse monocyte cell line RAW264; assay: Cytokine release from SAA-treated RAW264 monocytes (Luminex); assay type: cell-based; conditions: RAW264 cells
Experimental: (§1) Cell Culture Conditions. Primary human coronary artery endothelial cells (HCAECs) were purchased from Cambrex (Walkersville, Md.) and grown in endothelial cell basal medium-2 (EBM-2) supplemented with EGM-2 BulletKit. Experiments were conducted between the third to fifth passages. RAW264 cells (ATCC, Manassas, Va.) were grown in RPMI medium 1640 supplemented with about 10% fetal bovine serum. These cells were seeded on 6-well tissue culture plates at about 75% confluence and grown to about 90-95% confluence. The growth medium was replaced with supplement-free media (EBM-2 basal medium for HCAECs and RPMI1640 for RAW264). About one hour after the medium change, the cells were treated with recombinant human SAA (Peprotech, Rocky Hill, N.J.). The endotoxin level for this commercial preparation is advertised as less than about 0.1 ng/μg protein. The conditioned medium was collected about 8 hours after the SAA treatment by centrifugation at about 2,000×g for about 5 minutes and frozen until use for cytokine analysis.
(§2) Cytokine analysis. […] The intra- and inter-assay CV is about 5% and about 8% respectively. […] All samples were assayed in duplicate.

[3] = system: Primary human coronary vascular endothelial cells (HCVECs); assay: Cytokine release from SAA-treated human coronary vascular endothelial cells (Luminex / ELISA); assay type: cell-based
Experimental: as §1, §2

[4] = SAA 0.47 or 2.3 μg/ml, about 8 hours, serum-free medium, dose-dependent

CN(CCOc1ccc(CC2SC(=O)NC2=O)cc1)c1ccccn1 (centres unmarked) [rosiglitazone]
reduction of insulin/dexamethasone stimulation of A-SAA secretion in the media [1]: about 70%

lipopolysaccharide [LPS, reference compound]
cytokine secretion (endotoxin contamination control) ([2]; LPS 1 ng/ml): did not stimulate cytokine secretion | cytokine secretion (endotoxin contamination control) ([3]; LPS 1 ng/ml): did not stimulate cytokine secretion

B1: A-SAA: recombinant human SAA (Peprotech); acute-phase serum amyloid A used to treat cells (protein, UniProt P0DJI8 19-122, looked up)
Serum amyloid A-1 protein: RSFFSFLGEAFDGARDMWRAYSDMREANYIGSDKYFHARGNYDAAKRGPGGAWAAEVITDARENIQRFFGHGAEDSLADQAANEWGRSGKDPNHFRPAGLPEKY
release of IL-6 [2, 4]: dramatically stimulated | release of IL-8 [2, 4]: dramatically stimulated | release of RANTE [2, 4]: dramatically stimulated | release of TNFα [2, 4]: dramatically stimulated | release of IL-6 [3, 4]: dramatically stimulated | release of IL-8 [3, 4]: dramatically stimulated | release of MCP-1 [3, 4]: dramatically stimulated | release of plasminogen activator inhibitor-1 (PAI-1) [3, 4]: dramatically stimulated
